In patent US20060058231A1 (Xencor, published 2006):
Substitutions are numbered along the chain they refer to. Names and notes keep the numbering of the source.

T1: BMPRII receptor-Fc fusion (UniProt Q13873 27-151, limits assumed)
T1 construct: BMP receptor-Fc fusion, detected with anti-human IgG-HRP
T1 sequence (looked up): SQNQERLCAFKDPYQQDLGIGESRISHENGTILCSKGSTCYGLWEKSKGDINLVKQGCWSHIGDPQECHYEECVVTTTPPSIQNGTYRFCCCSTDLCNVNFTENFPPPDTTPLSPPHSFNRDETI

T2: BMPRIb receptor-Fc fusion (UniProt O00238 14-126)
T2 construct: BMP receptor-Fc fusion, detected with anti-human IgG-HRP; also called ALK-6
T2 sequence (looked up): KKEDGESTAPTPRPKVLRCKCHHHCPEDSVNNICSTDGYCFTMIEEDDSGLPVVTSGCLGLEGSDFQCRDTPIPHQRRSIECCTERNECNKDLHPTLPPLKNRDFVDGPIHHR

T3: BMPRII receptor-Fc fusion (UniProt Q13873 27-151, limits assumed)
T3 construct: BMP receptor-Fc fusion used at 5 ug/mL
T3 sequence (looked up): T1 sequence (looked up)

T4: BMPRIb receptor-Fc fusion (UniProt O00238 14-126)
T4 construct: BMP receptor-Fc fusion used at 5 ug/mL; also called ALK-6
T4 sequence (looked up): T2 sequence (looked up)

B1: BMP-7 variant R134S (ligand)
chain: STGGKQRSQNRSKTPKNQEALRMASVAENSSSDQRQACKKHELYVSFRDLGWQDWIIAPEGYAAYYCEGECAFPLNSYMNATNHAIVQTLVHFINPETVPKPCCAPTQLNAISVLYFDDSSNVILKKYRNMVVSACGCH
B2: BMP-7 variant E60S (ligand)
chain: B1 chain with E60S, S134R
B3: BMP-7 variant K39T (ligand)
chain: B1 chain with K39T, S134R
B4: BMP-7 variant K126G (ligand)
chain: B1 chain with K126G, S134R
B5: BMP-7 variant S77T (ligand)
chain: B1 chain with S77T, S134R
B6: BMP-7 variant Q53A (ligand)
chain: B1 chain with Q53A, S134R
B7: BMP-7 variant R134L (ligand)
chain: B1 chain with S134L
B8: BMP-7 variant S77P (ligand)
chain: B1 chain with S77P, S134R
B9: BMP-7 variant K39D (ligand)
chain: B1 chain with K39D, S134R
B10: BMP-7 variant R134P (ligand)
chain: B1 chain with S134P
B11: BMP-7 variant Y44N (ligand)
chain: B1 chain with Y44N, S134R
notes: In conditioned media; numbering on mature BMP-7
B12: BMP-7 variant Y128K (ligand)
chain: B1 chain with Y128K, S134R
notes: as for B11
B13: BMP-7 variant Y78T (ligand)
chain: B1 chain with Y78T, S134R
notes: as for B11
B14: BMP-7 variant W55R (ligand)
chain: B1 chain with W55R, S134R
notes: as for B11
B15: BMP-7 variant Y44T (ligand)
chain: B1 chain with Y44T, S134R
notes: as for B11
B16: BMP-7 variant Y78S (ligand)
chain: B1 chain with Y78S, S134R
notes: as for B11
B17: BMP-7 variant Y78R (ligand)
chain: B1 chain with Y78R, S134R
notes: as for B11
B18: BMP-7 variant Y78D (ligand)
chain: B1 chain with Y78D, S134R
notes: as for B11
B19: BMP-7 variant Y78H (ligand)
chain: B1 chain with Y78H, S134R
notes: as for B11
B20: BMP-7 variant Y78P (ligand)
chain: B1 chain with Y78P, S134R
notes: as for B11
B21: BMP-7 variant 504 (Y65N/S120D) (ligand)
chain: B1 chain with Y65N, S120D, S134R
notes: Purified, unlabeled variant; also called v504
B22: recombinant human BMP-7 (R&D Systems) (ligand)
chain: B1 chain with S134R
notes: Bought protein; also called wild type human BMP-7 (R&D Systems); wt
B23: BMP-7 variant 526 (K39S/S120D/R134E) (ligand)
chain: B1 chain with K39S, S120D, S134E
notes: Purified variant; also called v526
B24: BMP-7 variant 565 (Y65N/F93T/R129D) (ligand)
chain: B1 chain with Y65N, F93T, R129D, S134R
notes: Purified variant; also called v565

Each binder was assayed against T5, ActRIIa receptor-Fc fusion (UniProt P27037 20-134, limits assumed) (assay: ELISA-like, fixed volume of conditioned media, receptor-Fc).
T5 construct: BMP receptor-Fc fusion, detected with anti-human IgG-HRP
T5 sequence (P27037 20-134 limits assumed): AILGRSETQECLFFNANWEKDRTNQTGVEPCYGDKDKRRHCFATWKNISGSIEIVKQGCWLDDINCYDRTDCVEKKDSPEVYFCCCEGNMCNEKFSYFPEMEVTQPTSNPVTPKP

ActRIIa binding relative to wild type	Binder
1.17 relative to wt = 1.0	B1
1.02 relative to wt = 1.0	B2
0.98 relative to wt = 1.0	B3
0.53 relative to wt = 1.0	B4
0.99 relative to wt = 1.0	B5
0.84 relative to wt = 1.0	B6
0.99 relative to wt = 1.0	B7
0.92 relative to wt = 1.0	B8
0.88 relative to wt = 1.0	B9
0.89 relative to wt = 1.0	B10

The binders below were run against T1, BMPRII receptor-Fc fusion in the same assay as above.

BMPRII binding relative to wild type	Binder
1.07 relative to wt = 1.0	B1
0.88 relative to wt = 1.0	B2
0.75 relative to wt = 1.0	B3
0.12 relative to wt = 1.0	B4
0.93 relative to wt = 1.0	B5
0.26 relative to wt = 1.0	B6
1 relative to wt = 1.0	B7
0.85 relative to wt = 1.0	B8
0.72 relative to wt = 1.0	B9
0.5 relative to wt = 1.0	B10

The binders below were run against T6, BMPRIa receptor-Fc fusion (UniProt P36894 24-152, limits assumed) in the same assay as above.
T6 construct: BMP receptor-Fc fusion; also called ALK-3
T6 sequence (P36894 24-152 limits assumed): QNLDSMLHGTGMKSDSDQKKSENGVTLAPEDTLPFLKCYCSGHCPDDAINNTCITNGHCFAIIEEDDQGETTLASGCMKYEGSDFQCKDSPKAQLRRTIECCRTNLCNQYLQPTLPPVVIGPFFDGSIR

BMPRIa binding relative to wild type	Binder
1.1 relative to wt = 1.0	B1
0.74 relative to wt = 1.0	B2
0.74 relative to wt = 1.0	B3
0.3 relative to wt = 1.0	B4
0.94 relative to wt = 1.0	B5
0.54 relative to wt = 1.0	B6
1.03 relative to wt = 1.0	B7
0.68 relative to wt = 1.0	B8
0.67 relative to wt = 1.0	B9
0.54 relative to wt = 1.0	B10

Each binder was assayed against T2, BMPRIb receptor-Fc fusion in the same assay as above.

BMPRIb binding relative to wild type	Binder
1.15 relative to wt = 1.0	B1
0.87 relative to wt = 1.0	B2
0.86 relative to wt = 1.0	B3
0.35 relative to wt = 1.0	B4
0.9 relative to wt = 1.0	B5
0.65 relative to wt = 1.0	B6
1.02 relative to wt = 1.0	B7
0.95 relative to wt = 1.0	B8
0.82 relative to wt = 1.0	B9
0.6 relative to wt = 1.0	B10

The binders below were run against T7, ActRIIa receptor-Fc fusion (UniProt P27037 20-134, limits assumed) (assay: ELISA-like plate assay, captured BMP-7 from conditioned media, receptor-Fc detection).
T7 construct: BMP receptor-Fc fusion used at 5 ug/mL
T7 sequence (P27037 20-134 limits assumed): as the sequence (P27037 20-134 limits assumed) above

ActRIIa binding (relative to wild type = 1.0)	Binder
0.45 relative to wild type	B11
1.11 relative to wild type	B12
1.63 relative to wild type	B13
1.2 relative to wild type	B14
0.36 relative to wild type	B15
1.58 relative to wild type	B16
2.26 relative to wild type	B17
1.93 relative to wild type	B18
1.07 relative to wild type	B19
0.92 relative to wild type	B20

Each binder was assayed against T3, BMPRII receptor-Fc fusion in the same assay as above.

BMPRII binding (relative to wild type = 1.0)	Binder
1.46 relative to wild type	B11
1.78 relative to wild type	B12
2.66 relative to wild type	B13
1.52 relative to wild type	B14
0.25 relative to wild type	B15
1.77 relative to wild type	B16
3.13 relative to wild type	B17
2.72 relative to wild type	B18
1.47 relative to wild type	B19
0.85 relative to wild type	B20

Each binder was assayed against T8, BMPRIa receptor-Fc fusion (UniProt P36894 24-152, limits assumed) in the same assay as above.
T8 construct: also called ALK-3
T8 sequence (P36894 24-152 limits assumed): as the sequence (P36894 24-152 limits assumed) above

BMPRIa binding (relative to wild type = 1.0)	Binder
2.05 relative to wild type	B11
1.4 relative to wild type	B12
0.87 relative to wild type	B13
1.75 relative to wild type	B14
1.09 relative to wild type	B15
1.29 relative to wild type	B16
1.36 relative to wild type	B17
1.05 relative to wild type	B18
1.36 relative to wild type	B19
0.75 relative to wild type	B20

These binders were tested against T4, BMPRIb receptor-Fc fusion in the same assay as above.

BMPRIb binding (relative to wild type = 1.0)	Binder
1.81 relative to wild type	B11
1.57 relative to wild type	B12
2.4 relative to wild type	B13
2.17 relative to wild type	B14
1.33 relative to wild type	B15
2.75 relative to wild type	B16
2.39 relative to wild type	B17
2.01 relative to wild type	B18
1.34 relative to wild type	B19
0.69 relative to wild type	B20

Each binder was assayed against T9, anti-BMP-7 antibodies of the commercial ELISA (R&D Systems ELISA Duoset Cat#DY354) (assay: sandwich ELISA (R&D Systems BMP7 ELISA Cat#DY354), BMP-7 protein titrated, % ELISA signal; the EC50 column carries no unit, the concentration axis is in ug/mL).
T9 construct: also called antibody; ELISA antibody

EC50 [ng/mL]	Binder
8.21	B21
1.12	B22
1.19	B23
6.88	B24
